Assay results from PMC2704239.

Legend:
Assay in all cases: co-IP
[1] = target: FLAG-tagged Mili N-terminal domain (mouse)
[2] = target: FLAG-tagged Mili region containing the PAZ, Mid, and Piwi domains (mouse)
myc-tagged Tdrd2, Q80VL1 = target: T1, myc-tagged Tdrd2, Q80VL1; conditions: remark: other sources report otherwise
T1 chain: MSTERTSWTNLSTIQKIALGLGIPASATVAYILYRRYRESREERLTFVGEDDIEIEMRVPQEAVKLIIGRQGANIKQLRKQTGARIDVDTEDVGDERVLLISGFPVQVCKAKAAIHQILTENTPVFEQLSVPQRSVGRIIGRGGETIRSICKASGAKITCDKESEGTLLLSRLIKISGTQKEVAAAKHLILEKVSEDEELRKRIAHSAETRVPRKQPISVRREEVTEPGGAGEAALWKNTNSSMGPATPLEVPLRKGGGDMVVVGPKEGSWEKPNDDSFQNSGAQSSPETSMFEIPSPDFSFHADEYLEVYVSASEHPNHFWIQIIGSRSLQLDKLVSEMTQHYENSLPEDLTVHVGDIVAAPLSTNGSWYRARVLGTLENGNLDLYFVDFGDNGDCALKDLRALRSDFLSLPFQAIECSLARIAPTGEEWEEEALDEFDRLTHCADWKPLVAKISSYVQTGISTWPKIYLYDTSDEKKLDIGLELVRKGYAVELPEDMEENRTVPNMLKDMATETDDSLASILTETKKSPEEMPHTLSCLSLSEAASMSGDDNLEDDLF

B1: myc-tagged Tdrd1 (natural protein)
chain: MMPRNNLEASTCKMAEPFNFEKKESKPPPQDPLRSPVAQHNHPTFRLKSPENGNTKNNFLLCEQNKQYLASQEDSSVVSSNPAVVNGEVGGSKGDRKPPPTGNPVSPLSLGNSSPPNQVKTKPSSNVTPEKSKKSHKLFENALSVNNPALFNSLGPPLRSTTCHRCGLFGSLRCSQCKQTYYCSTACQRRDWSSHSTICRPVQQSLNKLEDNKSPFETKAIEVKSEVDCPPGVTKEITAGAERVMFSDLRSLQLKKTMEIKGTVTEFKHPSNFYIQLYSSEVLENMNQLSTSLKETYANVVPEDGYLPVKGEVCVAKYTVDQTWNRAIVQAVDVLQRKAHVLYIDYGNEEMIPIDSVHPLSRGLDLFPPSAIKCCVSGVIPTAGEWSEGCVAAVKALLFEQFCSVKVMDILEEEVLTCAVDLVLQSSGKQLDHVLVEMGYGVKPGEQSSTEQSVDHSALEDVGRVTVESKIVTDRNALIPKVLTLNVGDEFCGVVAHIQTPEDFFCQQLQSGHKLAELQESLSEYCGHVIPRSDFYPTIGDVCCAQFSEDDQWYRASVLAYASEESVLVGYVDYGNFEILSLKRLCPIIPKLLDLPMQALNCVLAGVKPSLGIWTPEAVCVMKEMVQNRMVTVRVVGMLGTRALVELIDKSVAPHVSASKALIDSGFAIKEKDVADKGSSMHTASVPLAIEGPAEALEWTWVEFTVDETVDVVVCMMYSPGEFYCHFLKDDALEKLDDLNQSLADYCAQKPPNGFKAEIGRPCCAFFSGDGNWYRALVKEILPSGNVKVHFVDYGNVEEVTTDQLQAILPQFLLLPFQGMQCWLVDIQPPNKHWTKEATARFQACVVGLKLQARVVEITANGVGVELTDLSTPYPKIISDVLIREQLVLRCGSPQDSLMSRPANQHKQIDSHRVQASPSAEQWKTMELPVNKTIAANVLEIISPALFYAIPSEMSENQEKLCVLAAELLEHCNAQKGQPAYRPRTGDACCAKYTNDDFWYRAIVLETSESDVKVLYADYGNIETLPLSRVQPIPASHLELPFQIIRCSLEGPMELNGSCSQLVMELLRNAMLNQSVVLSVKAISKNVHAVSVEKCSENGMINIAENLVMCGLAENLTSKRKSASTKEIPHSRDCCCTELQKQIEKHEQILLFLLNNPTNQSKFTEMKKLLRS
co-IP of Tdrd1 as percent of full-length Mili [1]: 76%
binding as percent of the wildtype level [2]: 11%

B2: FLAG-tagged Mili, Q8CDG1 1-971 (natural protein)
chain: MDPVRPLFRGPTPVHPSQCVRMPGCWPQAPRPLEPAWGRAGPAGRGLVFRKPEDSSPPLQPVQKDSVGLVSMFRGMGLDTAFRPPSKREVPPLGRGVLGRGLSANMVRKDREEPRSSLPDPSVLAAGDSKLAEASVGWSRMLGRGSSEVSLLPLGRAASSIGRGMDKPPSAFGLTARDPPRLPQPPALSPTSLHSADPPPVLTMERKEKELLVKQGSKGTPQSLGLNLIKIQCHNEAVYQYHVTFSPSVECKSMRFGMLKDHQSVTGNVTAFDGSILYLPVKLQQVVELKSQRKTDDAEISIKIQLTKILEPCSDLCIPFYNVVFRRVMKLLDMKLVGRNFYDPTSAMVLQQHRLQIWPGYAASIRRTDGGLFLLADVSHKVIRNDSVLDVMHAIYQQNKEHFQDECSKLLVGSIVITRYNNRTYRIDDVDWNKTPKDSFVMSDGKEITFLEYYSKNYGITVKEDDQPLLIHRPSERQNNHGMLLKGEILLLPELSFMTGIPEKMKKDFRAMKDLTQQINLSPKQHHGALECLLQRISQNETASNELTRWGLSLHKDVHKIEGRLLPMERINLRNTSFVTSEDLNWVKEVTRDASILTIPMHFWALFYPKRAMDQARELVNMLEKIAGPIGMRISPPAWVELKDDRIETYIRTIQSLLGVEGKIQMVVCIIMGTRDDLYGAIKKLCCVQSPVPSQVINVRTIGQPTRLRSVAQKILLQMNCKLGGELWGVDIPLKQLMVIGMDVYHDPSRGMRSVVGFVASINLTLTKWYSRVVFQMPHQEIVDSLKLCLVGSLKKYYEVNHCLPEKIVVYRDGVSDGQLKTVANYEIPQLQKCFEAFDNYHPKMVVFVVQKKISTNLYLAAPDHFVTPSPGTVVDHTITSCEWVDFYLLAHHVRQGCGIPTHYICVLNTANLSPDHMQRLTFKLCHMYWNWPGTIRVPAPCKYAHKLAFLSGQILHHEPAIQLCGNLFFL
fold weaker interaction than with Tdrd1 (myc-tagged Tdrd2, Q80VL1): 20 fold
